Reference: paper PMC4452267

Columns and labels:
[1] = molecular target: T1, PpsR (Rubrivivax gelatinosus) (UniProt I0HUJ5); experiment: DNase I footprinting; conditions: EMSA: 5 nM probe, 25 mM Tris-HCl pH 8.0, 100 mM NaCl, 2 mM MgCl2, 6% glycerol, 50 ug/ml heparin, room temperature 30 min (5 mM DTT if reduced); footprint: …
T1 sequence: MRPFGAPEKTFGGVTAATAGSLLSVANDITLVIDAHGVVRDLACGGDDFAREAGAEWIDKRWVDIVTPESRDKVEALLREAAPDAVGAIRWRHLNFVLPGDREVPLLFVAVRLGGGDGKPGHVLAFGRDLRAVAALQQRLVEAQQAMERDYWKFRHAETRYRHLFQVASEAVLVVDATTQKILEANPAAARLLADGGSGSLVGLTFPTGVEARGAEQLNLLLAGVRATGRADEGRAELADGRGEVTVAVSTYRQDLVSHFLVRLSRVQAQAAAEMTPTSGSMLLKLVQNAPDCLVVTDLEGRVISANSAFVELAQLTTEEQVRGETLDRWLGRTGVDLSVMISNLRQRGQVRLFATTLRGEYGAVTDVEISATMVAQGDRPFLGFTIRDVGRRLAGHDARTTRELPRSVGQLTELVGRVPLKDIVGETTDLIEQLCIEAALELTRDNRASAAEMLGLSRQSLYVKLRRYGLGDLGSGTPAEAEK

[2] = test system: PpsR (Rubrivivax gelatinosus); experiment: EMSA; conditions: EC50, EMSA: 5 nM probe, 25 mM Tris-HCl pH 8.0, 100 mM NaCl, 2 mM MgCl2, 6% glycerol, 50 ug/ml heparin, room temperature 30 min (5 mM DTT if reduced), footprint: …
[3] = test system: PpsR C436A (Rubrivivax gelatinosus); experiment: EMSA; conditions: EC50, EMSA: 5 nM probe, 25 mM Tris-HCl pH 8.0, 100 mM NaCl, 2 mM MgCl2, 6% glycerol, 50 ug/ml heparin, room temperature 30 min (5 mM DTT if reduced), footprint: …
[4] = molecular target: Rubrivivax gelatinosus PpsR (Rubrivivax gelatinosus); experiment: SEC; Superose 12 in 20 mM Tris-HCl (pH 8.0), 500 mM NaCl, 6% glycerol, 0.5 ml/min; molecular weight estimated from a standard curve (Gel Filtration Standard, BioRad)

Substance: ATCCTGCTTTCCGGCCGCGCGCGGGGCTGCGGCATCCGACTTCATCAGCATCCGTCGAGCTTGTCCTAAGGCAGGGATTGTGTCAACGACAATTGACGCTCTGTTTTGTCAAGCGCAAGATTCAGCCCCATGGCAAGGCCCGCGTTGTCCGCTGTAGCGGAGTTGCTCAAACCGATCACCTGGTTCCCTCCGAT (double strand) [crtI promoter footprint probe]
- binding [1]: binds

Substance: ACCAGTTTCCGTGCTCGACCCGCACGTGGGTTGGCTTCTGTAGCCCTCGGATTTCTCCCTACCGACATGTGTAACGCTACGCTGACAGGGTGGGGGCGTCAACATGTCGTGACACCCCCGCAACGCTGAATGTGTCGCGGCTCTGATCTATGACAAATTGCCGGGGTCCGGCGGGCCTCGGGAGCTCT (double strand) [pucB promoter footprint probe]
- binding [1]: binds

Substance: crtI promoter EMSA probe
- K half ([2]; oxidized (untreated)): 80.5 nM
- K half ([2]; reduced, 5 mM DTT): 86.5 nM
- K half ([3]; oxidized (untreated)): 146 nM
- K half ([3]; reduced, 5 mM DTT): 147 nM

Substance: pucB promoter EMSA probe
- K half ([2]; oxidized (untreated)): 49.8 nM
- K half ([2]; reduced, 5 mM DTT): 63.3 nM
- K half ([3]; oxidized (untreated)): 94.1 nM
- K half ([3]; reduced, 5 mM DTT): 93.3 nM

Substance: Rubrivivax gelatinosus PpsR (natural protein)
- stoichiometry N [4]: 4
